Reference: patent US20260001920A1

Assays:
Test in all cases: cell-based or functional assay
[1] = molecular target: RpPpsR2 mutant (with Q105S and L137E introduced) (NLSx3-MS2-RpPpsR2 mutant) (bacteriophage MS2; Rhodopseudomonas palustris) (UniProt P03612)
[2] = molecular target: RpPpsR2 mutant (with Q105T and L137E introduced) (NLSx3-MS2-RpPpsR2 mutant) (bacteriophage MS2; Rhodopseudomonas palustris) (UniProt P03612)
[3] = molecular target: RpPpsR2 mutant L110A (NLSx3-MS2-RpPpsR2 mutant) (bacteriophage MS2; Rhodopseudomonas palustris) (UniProt P03612)
[4] = molecular target: RpPpsR2 domain-modified body D1-D2 (del C 15) (NLSx3-MS2-RpPpsR2 mutant) (bacteriophage MS2; Rhodopseudomonas palustris) (UniProt P03612)
[5] = molecular target: RpPpsR2 domain-modified body D4-D1-D2 (NLSx3-MS2-RpPpsR2 mutant) (bacteriophage MS2; Rhodopseudomonas palustris) (UniProt P03612)

| Substance | light-dependent activation (ratio of NIR signal intensity to Dark signal intensity), CPTS luminescence reporter in HEK293T cells [1] | light-dependent activation (ratio of NIR signal intensity to Dark signal intensity), CPTS luminescence reporter in HEK293T cells [2] [times] | gene activation by light irradiation (NIR against Dark), CPTS luminescence reporter in HEK293T cells [3] [times] | light-dependent activation (NIR against Dark), CPTS luminescence reporter in HEK293T cells [4] [times] | light-dependent activation (NIR against Dark), CPTS luminescence reporter in HEK293T cells [5] [times] |
| --- | --- | --- | --- | --- | --- |
| RpBphP1 mutant (with Q502A and E513A introduced) (NLSx3-RpBphP1 mutant-p65-HSF1) | 10 > | > 10 | – | – | – |
| wild-type RpBphP1 (NLSx3-RpBphP1-p65-HSF1) | – | – | 13.4 | 9.6 | 7.2 |
